In US20220306728A1 (VIR BIOTECHNOLOGY, published 2022):

Tests used:
[1] = molecular target: H3N2 representative viral strain (hemagglutinin), Example 6; assay: cell-based or functional assay
[2] = molecular target: H1N1 representative viral strain (hemagglutinin), Example 6; assay: cell-based or functional assay

B1: FluAB_MLNS (antibody)
heavy: not shown
light: DIQMTQSPSSLSASVGDRVTITCRTSQSLSSYTHWYQQKPGKAPKLLIYAASSRGSGVPSRFSGSGSGTDFTLTISSLQPEDFATYYCQQSRTFGQGTKVEIKRTVAAPSVFIFPPSDEQLKSGTASVVCLLNNFYPREAKVQWKVDNALQSGNSQESVTEQDSKDSTYSLSSTLTLSKADYEKHKVYACEVTHQGLSSPVTKSFNRGEC
B1 was tested, and the “IC50 of in vitro neutralization (MDCK cells, neuraminidase activity read-out)” value [1] was 0.0179 µM and the “IC50 of in vitro neutralization (MDCK cells, neuraminidase activity read-out)” value [2] was 0.0156 µM.
